Where “and” joins values, the source holds several entries; their conditions need not be identical. Identical values can stand only once. Like-named read-outs stand apart in the source and are kept apart here.
How the values were obtained:
[1] = biological target: GST fused to the C-terminal residues 200-294 of HMPV P (strain CAN97-83) (human metapneumovirus strain CAN97-83)
[2] = biological target: HMPV nucleoprotein N (strain NL/00/1), assembled and RNA-bound (N-RNA) (human metapneumovirus strain NL/00/1) (UniProt Q6WBA1); experiment: cryo-EM structure; single-particle cryo-EM of recombinant N-RNA (1.0 mg/ml) in 25 mM Tris-HCl pH 8.0, 250 mM NaCl; 2D classification and 3D reconstruction of 10-mer, 11-mer and spiral particles, local refinement of an N-RNA dimer
[3] = biological target: HMPV nucleoprotein N (strain NL/00/1), assembled and RNA-bound (N-RNA) (human metapneumovirus strain NL/00/1) (UniProt Q6WBA1); experiment: as above; remark: listed apart in the source

| Substance | HMPV polymerase activity, minigenome assay (Firefly luciferase) in BSRT7/5 cells, compared to wild-type; N and full-length P of strain NL99-1 from pCite plasmids (% of wild-type) [1] | stoichiometry N [2] [protomers] | stoichiometry N [3] |
| --- | --- | --- | --- |
| HMPV N (strain CAN97-83) with a C-terminal 6xHis tag, L111E (natural protein) | 10 |  |  |
| HMPV N (strain NL99-1, plasmid pN) L111A (natural protein) | < 50 |  |  |
| HMPV N (strain NL99-1, plasmid pN) triple mutant with alanines in positions 100, 103 and 111 (natural protein) | 30 |  |  |
| HMPV nucleoprotein N (strain NL/00/1), assembled and RNA-bound (N-RNA) (from UniProt Q6WBA1 1-394) (natural protein) |  | > 12 | 10 protomers and 11 protomers and 12 protomers |

Source: publication PMC10665349
